Patent US7479478B2, “Human parathyroid hormone modifications, preparation and use” (The General Hospital Corporation, priority 1998, dated 2009)
No end group written: not given here.

Molecular target: T1, human PTH-1 receptors (Homo sapiens, UniProt Q03431)
T1 construct: expressed in transfected cells
T1 sequence (Q03431 27-593): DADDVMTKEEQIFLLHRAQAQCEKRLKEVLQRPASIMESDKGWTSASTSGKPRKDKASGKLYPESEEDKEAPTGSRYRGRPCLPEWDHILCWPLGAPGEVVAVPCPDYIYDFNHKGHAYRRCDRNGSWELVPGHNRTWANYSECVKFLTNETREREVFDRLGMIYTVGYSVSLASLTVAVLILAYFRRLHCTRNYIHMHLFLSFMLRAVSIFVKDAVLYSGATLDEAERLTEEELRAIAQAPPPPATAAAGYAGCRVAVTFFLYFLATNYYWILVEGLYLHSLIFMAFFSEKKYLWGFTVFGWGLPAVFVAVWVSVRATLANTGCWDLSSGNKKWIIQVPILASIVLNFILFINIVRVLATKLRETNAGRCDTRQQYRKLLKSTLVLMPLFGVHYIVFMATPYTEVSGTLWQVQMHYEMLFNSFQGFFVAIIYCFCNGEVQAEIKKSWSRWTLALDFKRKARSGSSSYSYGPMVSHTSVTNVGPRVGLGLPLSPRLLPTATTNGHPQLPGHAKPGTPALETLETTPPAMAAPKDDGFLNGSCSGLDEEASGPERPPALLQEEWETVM
Assay: AC activation in cells that express fewer human PTH-1 receptors (LLC-PK1 subclones, SaOS-2)
Type: cell-based
Conditions: LLC-PKI or SaOS-2 osteosarcoma cells, 10,000-100,000 receptors per cell; data not shown
Description: Intracellular cAMP accumulation, PLC activation and PTHR binding affinity were measured as previously reported (Bringhurst, F. R., et al., Endocrinology 132(5):2090-2098 (1993); Guo, J., et al., Endocrinology 136(9):3884-3891 (1995)). Intracellular cAMP accumulation was measured in extracts of cells that were exposed to human PTH peptides in the presence of isobutylmethyxanthine (IBMX, 1 mM) at 37° C. for 15 min. After terminating the reactions by aspiration and freezing in liquid nitrogen, cell monolayers were extracted with 50 mM HCl and cAMP was measured using a radioimmunoassay kit (Dupont-New England Nuclear, Boston, Mass.).
The possibility that the [Gly^1,Arg^19]hPTH-(1-28) peptide might be useful, especially in rodent models, as a signal-selective analog to dissociate AC from PLC signaling via the PTH-1 receptor was examined further using the EW5 subclone of LLC-PK1 cells that stably expresses rat PTH-1 receptors (Guo, J., et al., Endocrinology 136(9):3884-3891 (1995)). […]

fold reduction of AC activation relative to hPTH-(1-34): 10-20 fold
Sequence: GVSEIQLMHNLGKHLNSMRRVEWLRKKL [[Gly^1,Arg^19]hPTH-(1-28)]
